The values below come from US6777176.

The subject of series [1] is peptides from the phage display library which became phosphorylated by Enzyme I.
The target in series [2] is enzyme I (phosphoenolpyruvate-protein-phosphatase, EC 2.7.3.9) of the bacterial phosphotransferase system (E. coli) (UniProt P08839). Kind of series: cell-based or functional assay.

As for “enzyme I (phosphoenolpyruvate-protein-phosphatase, EC 2.7.3.9) of the bacterial phosphotransferase system”, in series [1], the “phosphorylation of phage displayed peptides by enzyme I with [32P]phosphoenolpyruvate, fold over the average” value is listed as “phosphorylated 25 to 30 fold over the average” and the “rate of phosphorylation by enzyme I (pyruvate formation coupled to lactate dehydrogenase)” value was “The inhibitory peptides are phosphorylated by enzyme I at a much slower rate than Hpr”.

In the case of HPr protein (from UniProt P0AA04 1-85), the uncoupling P1/peptide/h in series [2] is 2.7 P1/peptide/h.
